This assay concerns the target Biotinylated human CI-MPR domains I-XV (residues 41Q-G2293) (human) (UniProt P11717). The assay is described as follows: SPR; equilibrium binding; about 1,000 RU of biotinylated ligand on a streptavidin-coupled CM5 chip, LIMP-2 as analyte; Biacore T100, 25 °C, 10 mM HEPES pH 7.5, 150 mM NaCl, 0.005% Tween 20; one-site saturation binding model.

Sequence of Biotinylated human CI-MPR domains I-XV (residues 41Q-G2293) (human) (P11717 41-2293): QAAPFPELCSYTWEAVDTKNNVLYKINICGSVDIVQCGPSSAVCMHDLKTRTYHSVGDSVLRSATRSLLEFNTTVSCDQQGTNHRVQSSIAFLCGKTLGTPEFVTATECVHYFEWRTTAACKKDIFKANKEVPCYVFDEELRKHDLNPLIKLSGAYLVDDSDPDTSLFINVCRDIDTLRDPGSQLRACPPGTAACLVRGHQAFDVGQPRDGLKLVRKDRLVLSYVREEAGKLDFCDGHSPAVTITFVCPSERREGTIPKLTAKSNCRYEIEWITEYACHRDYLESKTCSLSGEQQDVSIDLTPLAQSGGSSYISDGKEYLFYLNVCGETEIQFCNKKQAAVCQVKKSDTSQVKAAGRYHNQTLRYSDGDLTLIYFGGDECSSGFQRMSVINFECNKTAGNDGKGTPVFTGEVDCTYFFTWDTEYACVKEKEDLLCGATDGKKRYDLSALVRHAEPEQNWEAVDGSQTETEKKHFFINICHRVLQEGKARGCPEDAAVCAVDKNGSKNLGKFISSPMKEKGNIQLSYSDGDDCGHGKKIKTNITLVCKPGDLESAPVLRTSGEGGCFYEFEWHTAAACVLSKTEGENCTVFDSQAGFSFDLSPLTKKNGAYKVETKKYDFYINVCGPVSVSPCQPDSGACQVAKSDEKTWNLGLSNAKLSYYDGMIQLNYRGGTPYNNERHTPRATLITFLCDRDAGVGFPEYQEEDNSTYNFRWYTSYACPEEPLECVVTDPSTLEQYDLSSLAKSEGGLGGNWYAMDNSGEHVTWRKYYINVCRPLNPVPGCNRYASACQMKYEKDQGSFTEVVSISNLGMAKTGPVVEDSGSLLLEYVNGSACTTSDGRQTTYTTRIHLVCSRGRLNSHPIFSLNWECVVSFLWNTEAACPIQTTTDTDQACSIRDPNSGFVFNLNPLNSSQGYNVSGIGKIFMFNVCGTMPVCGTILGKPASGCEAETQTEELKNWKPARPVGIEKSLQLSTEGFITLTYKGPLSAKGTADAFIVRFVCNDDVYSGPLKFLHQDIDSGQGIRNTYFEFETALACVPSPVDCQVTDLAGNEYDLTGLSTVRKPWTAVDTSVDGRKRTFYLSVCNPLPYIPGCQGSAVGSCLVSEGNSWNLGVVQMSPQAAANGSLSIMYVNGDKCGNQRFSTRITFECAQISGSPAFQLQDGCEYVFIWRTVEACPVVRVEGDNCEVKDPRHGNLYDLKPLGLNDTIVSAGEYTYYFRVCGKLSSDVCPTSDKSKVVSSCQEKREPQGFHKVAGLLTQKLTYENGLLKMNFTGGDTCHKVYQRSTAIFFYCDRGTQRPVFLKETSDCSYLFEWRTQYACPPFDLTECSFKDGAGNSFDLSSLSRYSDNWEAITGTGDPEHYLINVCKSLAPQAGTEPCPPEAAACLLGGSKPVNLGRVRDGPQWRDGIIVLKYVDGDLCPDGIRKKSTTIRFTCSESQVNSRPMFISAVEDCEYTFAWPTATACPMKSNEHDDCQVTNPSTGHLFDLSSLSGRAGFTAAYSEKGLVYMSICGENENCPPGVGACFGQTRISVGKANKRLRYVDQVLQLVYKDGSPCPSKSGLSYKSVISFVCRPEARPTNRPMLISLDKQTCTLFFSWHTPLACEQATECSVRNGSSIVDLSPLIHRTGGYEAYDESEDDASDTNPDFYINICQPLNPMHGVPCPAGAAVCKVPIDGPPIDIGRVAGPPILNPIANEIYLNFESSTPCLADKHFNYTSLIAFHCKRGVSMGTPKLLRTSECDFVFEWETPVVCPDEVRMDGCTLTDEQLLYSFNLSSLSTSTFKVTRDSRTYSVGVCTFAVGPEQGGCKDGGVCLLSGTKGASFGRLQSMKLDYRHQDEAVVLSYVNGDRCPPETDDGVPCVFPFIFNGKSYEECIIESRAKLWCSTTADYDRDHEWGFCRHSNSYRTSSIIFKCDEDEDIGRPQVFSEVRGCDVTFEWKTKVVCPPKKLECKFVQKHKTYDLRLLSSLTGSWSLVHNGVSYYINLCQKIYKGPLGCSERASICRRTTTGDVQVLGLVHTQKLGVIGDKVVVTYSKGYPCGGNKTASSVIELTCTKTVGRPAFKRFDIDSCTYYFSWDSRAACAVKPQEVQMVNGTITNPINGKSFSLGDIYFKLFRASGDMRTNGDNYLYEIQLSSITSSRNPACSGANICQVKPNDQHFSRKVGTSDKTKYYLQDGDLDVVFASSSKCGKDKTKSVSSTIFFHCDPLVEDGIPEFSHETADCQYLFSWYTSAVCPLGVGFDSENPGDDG

The Kd is a measure of binding affinity in units of concentration. A lower Kd goes with a tighter complex. “Human LIMP-2 luminal domain (residues 28-431) produced from HEK293T cells, with full glycosylation (from UniProt Q14108 28-431) (domain or fragment)” had a Kd of 970 nM.

Turning to “Human LIMP-2 luminal domain (residues 28-431) produced from HEK293S (GnTI-) cells, with limited glycosylation (from UniProt Q14108 28-431) (domain or fragment)”, the dissociation constant Kd worked out at 2200 nM.

The record behind these values is PMC4104448.
